From patent publication US20250161358A1 (UTC THERAPEUTICS SHANGHAI, published 2025) come the findings set out here.

Assay [1] addresses T1, CD7-Fc recombinant protein (human, UniProt P09564 26-180).
T1 construct: also called CD7-Fc protein; human CD7-Fc
T1 sequence (looked up): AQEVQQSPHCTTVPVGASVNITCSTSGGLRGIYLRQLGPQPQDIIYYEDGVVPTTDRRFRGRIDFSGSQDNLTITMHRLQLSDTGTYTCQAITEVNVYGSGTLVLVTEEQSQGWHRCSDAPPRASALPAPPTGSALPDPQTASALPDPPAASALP
Nature of the assay: flow cytometry, CAR-T cells stained with CD7-Fc protein. A general note: In flow cytometry, cells or beads pass a laser one at a time.

Assay [2] concerns the target T1, CD7-Fc recombinant protein. Nature of the assay: flow cytometry, CAR-T cells stained with CD7-Fc protein (FIG. 4).

Residue numbers refer to the chain shown, from its start.

B1: anti-CD7 scFv-H6 antibody (scFv, V domains shown)
VH: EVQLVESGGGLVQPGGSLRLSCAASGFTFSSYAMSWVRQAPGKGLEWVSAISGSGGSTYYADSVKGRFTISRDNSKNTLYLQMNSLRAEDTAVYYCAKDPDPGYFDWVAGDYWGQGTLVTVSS
VL: QSALTQPPSASGSPGQSVTISCTGTSSDVGGYNYVSWYQQHPGKAPKLMIYEVRKRPSGVPDRFSGSKSGNTASLTVSGLQADDEADYYCSSYAGSNNLGFGGGTKLTVL
notes: Fully human scFv from the phage library
On to B1, for which the binding result in assay [1] is “binds”.

B2: anti-CD7 scFv-H18 antibody (scFv, V domains shown)
VH: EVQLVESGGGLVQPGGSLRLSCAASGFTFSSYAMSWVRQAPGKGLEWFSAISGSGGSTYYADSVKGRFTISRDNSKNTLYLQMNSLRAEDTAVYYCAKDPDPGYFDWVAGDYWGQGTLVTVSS
VL: B1 VL with N33T, R54S, D83E, L99V, G100V, K106E
notes: as for B1
Regarding B2, the binding result in assay [2] was “binds”.

B3: anti-CD7 scFv-H15 antibody (scFv, V domains shown)
VH: EVQLVQSGAEVKKPGASVKVSCKVSGYTLTELSMHWVRQAPGKGLEWMGGFDPEDGETIYAQKFQGRVTMTEDTSTDTAYMELSSLRSEDTAVYYCATERASGSYEYYFDYWGQGTLVTVSS
VL: AIQLTQSPSSVSASVGDRVTITCRASQGISSWLAWYQQKPGKAPKLLIYAASSLQSGVPSRFSGSGSGTDFTLTISSLQPEDFATYYCQQANSFPYTFGQGTKVEIK
notes: as for B1
For the molecule B3, the binding result in assay [2] is “binds”.

B4: anti-CD7 scFv-H9 antibody (scFv, V domains shown)
VH: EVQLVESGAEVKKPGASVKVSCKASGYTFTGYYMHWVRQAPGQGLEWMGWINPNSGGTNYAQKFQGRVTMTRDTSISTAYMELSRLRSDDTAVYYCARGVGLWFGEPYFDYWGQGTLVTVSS
VL: QSVLTQPPSASGAPGERVTISCSGSSSNIGSNYVYWYQQLPGTAPKLLIYNSNQRPSGVPDRFSGSKSGASASLAISGLRSEDEADYYCAAWDDSLSGPVFGGGTKVTVL
notes: Fully human scFv from the phage library; also called anti-CD7 CAR-H9
Regarding B4, the binding result in assay [1] is recorded as “binds”.

B5: anti-CD7 scFv-H8 antibody (scFv, V domains shown)
VH: QVQLQESGAGLLKPSETLSLTCAVYGGSISGYYWSWIRQPPGKGLEWIGEINHSGSTNYNPSLKSRVTISVDTSKNQFSLKLSSVTAADTAVYYCARGGGSSGYYLDYWGQGALVTVSS
VL: QSVLTQPPSVSEAPRQRVTISCSGSSSNIGNNAVNWYQQLPGKAPKLLIYYDDLLPSGVSDRFSGSKSGTSASLTISGLQSEDGADYYCASWDDSLNGRVFGGGTKLTVL
notes: as for B1
For B5, the binding result in assay [1] is “binds”.

B6: anti-CD7 scFv-H7 antibody (scFv, V domains shown)
VH: EVQLVESGGGLIQPGGSLRLSCAASGFTVSSNYMSWVRQAPGKGLEWVSVIYSGGSTYYADSVKGRFTISRDNSKNTLYLQMNSLRAEDTAVYYCATDYGELHDAFDIWGQGTTVTVSS
VL: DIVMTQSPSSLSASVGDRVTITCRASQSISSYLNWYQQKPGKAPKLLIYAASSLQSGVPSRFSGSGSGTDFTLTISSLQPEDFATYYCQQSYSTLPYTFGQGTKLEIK
notes: Fully human scFv from the phage library; also called anti-CD7 CAR-H7
As for B6, the binding result in assay [1] is reported as “binds”.

B7: anti-CD7 scFv-H10 antibody (scFv, V domains shown)
VH: QLQLQESGGGLVQPGGSLRLSCAASGFTFSSYAMSWVRQAPGKGLEWVSAISGSGGSTYYADSVKGRFTISRDNSKNTLYLQMNSLRAEDTAVYYCAKGYSGYPAVLDYWGQGTLVTVSS
VL: QSALTQPASVSGSPGQSITISCTGTSSDVGGSKYVSWYQQHPGKAPKLMIYDVSYRPSGVSDRFSGSKSGNTASLTISGLQAEDEADYYCSSYTSNSNLPLFGGGTKVTVL
notes: Fully human scFv from the phage library; also called anti-CD7 CAR-H10
In the case of B7, the binding result in assay [1] is recorded as “binds”.

B8: anti-CD7 scFv-H12 antibody (scFv, V domains shown)
VH: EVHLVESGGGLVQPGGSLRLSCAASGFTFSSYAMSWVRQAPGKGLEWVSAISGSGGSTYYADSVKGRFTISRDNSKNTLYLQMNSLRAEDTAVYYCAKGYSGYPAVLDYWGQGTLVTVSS
VL: QPVLTQPPSASGTPGQRVIISCSGSGSNIGSNTVTWYRQFPGAAPKTLIYNSKLRPSWVPDRFTASKSGTSASLAISGLQSEDEADYYCAAWDDSLNGVVFGGGTKLTVL
notes: as for B1
Regarding B8, the binding result in assay [1] is given as “binds”.

B9: anti-CD7 scFv-H5 antibody (scFv, V domains shown)
VH: QVQLVQSGAEVKKPGESLRISCKGSGYSFTSYWISWVRQMPGKGLEWMGRIDPSDSYTNYSPSFQGHVTISADKSISTAYLQWSSLKASDTAMYYCARHPVTNYYYYGMDVWGQGTTVTVSS
VL: DIRLTQSPSTVSASIGDRVTITCRASQGISNWLTWYQQKPGKAPKLLIYSASTLQSGVPSRFSGSGSGTDFTLTISSLQPEDFATYYCQQANNLRTLTFGGGTKVDIK
notes: as for B1
On to B9, for which the binding result in assay [1] was “binds”.

B10: anti-CD7 scFv-H13 antibody (scFv, V domains shown)
VH: QVQLVQSGAEVKKPGSSVKVSCKASGGTFSSYAISWVRQAPGQGLEWMGGIIPIFGTANYAQKFQGRVTITADESTSTAYMELSSLRSEDTAVYYCARDQGVVPAAEIPYYDFWSGPPFDPWGQGTLVTVSS
VL: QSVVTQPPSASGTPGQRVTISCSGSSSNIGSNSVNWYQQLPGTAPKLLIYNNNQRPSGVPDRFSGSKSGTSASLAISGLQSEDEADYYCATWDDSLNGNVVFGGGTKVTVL
notes: as for B1
Regarding B10, the binding result in assay [2] is recorded as “binds”.

B11: anti-CD7 scFv-H4 antibody (scFv, V domains shown)
VH: QVQLVQSGGGLVQPGGSLRLSCAASGFTFSTYWMSWVRQAPGKGLEWVANINQDGTEKYYVDSVKGRFTISRDNAKNSLYLQMNSLRAEDTAVYYCAREPGIALDYWGQGTLVTVSS
VL: QSVVTQPPSVSAAPGQKVTISCSGSSSNIGNNYVSWYQQLPGTAPKLLIYDNNKRPSGIPDRFSGSKSGTSATLGITGLQTGDEADYYCGTWDSSLSAGDWVFGGGTKLTVL
notes: as for B1
As for B11, the binding result in assay [1] is on record as “binds”.
